Experimental data published in PMC3282741, “Independent Recruitment of a Flavin-Dependent Monooxygenase for Safe Accumulation of Sequestered Pyrrolizidine Alkaloids in Grasshoppers and Moths” (PLoS ONE, 2012).

What was measured:
[1] = test system: CN1[C@@H]2CC[C@H]1CC(OC(=O)C(CO)c1ccccc1)C2; assay: purified protein; details: 0.2 mM NADPH, 100 mM glycine/NaOH pH 9, 37°C
[2] = test system: C[C@H]1C(=O)O[C@@H]2CCN3CC=C(COC(=O)[C@](C)(O)[C@]1(C)O)[C@H]23; assay: purified protein; type: biochemical, Zonocerus variegatus; details: 0.2 mM NADPH, 100 mM glycine/NaOH pH 9, 37°C
Description: (§1) photometric or radioassay N-oxygenation, initial rates on ZvPNO

[3] = test system: CO[C@H](C)[C@](O)(C(=O)OCC1=CCN2CC[C@H](O)[C@@H]12)C(C)C; assay: purified protein; type: biochemical, Zonocerus variegatus; details: 0.2 mM NADPH, 100 mM glycine/NaOH pH 9, 37°C
Description: as §1

[4] = test system: C/C=C1/C[C@@H](C)[C@@](C)(O)C(=O)OCC2=CCN3CC[C@@H](OC1=O)[C@@H]23; assay: purified protein; type: biochemical, Zonocerus variegatus; details: 0.2 mM NADPH, 100 mM glycine/NaOH pH 9, 37°C
Description: as §1

[5] = molecular target: T1, ZvPNO (Zonocerus variegatus, UniProt L0N8S9); type: biochemical; details: 0.2 mM NADPH; 100 mM glycine/NaOH pH 9; 37°C
T1 construct: gene pno; full ORF (1242 bp, 47,793 Da subunit), no signal peptide predicted, C-terminal His6, pET28a, E. coli BL21(DE3), Ni-NTA; homodimer (91,200 Da)
Description: as §1

| Substance | Km [1] | Vmax [1] | kcat [1] | kcat/Km [1] | Km [2] | Vmax [2] | kcat [2] | kcat/Km [2] | Km [3] | Vmax [3] | kcat [3] | kcat/Km [3] | Km [4] | Vmax [4] | kcat [4] | kcat/Km [4] | Km [5] |
| --- | --- | --- | --- | --- | --- | --- | --- | --- | --- | --- | --- | --- | --- | --- | --- | --- | --- |
| ZvPNO (Zonocerus variegatus) | 9.83 ± 1.04 µM | 0.461 µmol/min/mg | 0.37 s⁻¹ | 37600 M⁻¹ s⁻¹ | 11.93 ± 0.76 µM | 1.2 µmol/min/mg | 0.96 s⁻¹ | 80500 M⁻¹ s⁻¹ | 263.89 ± 10.06 µM | 0.149 µmol/min/mg | 0.12 s⁻¹ | 454 M⁻¹ s⁻¹ | 1.08 ± 0.07 µM | 1.24 µmol/min/mg | 0.99 s⁻¹ | 917000 M⁻¹ s⁻¹ | – |
| phalaenopsine | – | – | – | – | – | – | – | – | – | – | – | – | – | – | – | – | 838 ± 77.4 µM |
